Source: patent US20260132194A1 (XBIOTECH, published 2026)

Target: T1, recombinant human interleukin 1 alpha (IL-1α) (human, UniProt P01583 113-271)
T1 sequence (looked up): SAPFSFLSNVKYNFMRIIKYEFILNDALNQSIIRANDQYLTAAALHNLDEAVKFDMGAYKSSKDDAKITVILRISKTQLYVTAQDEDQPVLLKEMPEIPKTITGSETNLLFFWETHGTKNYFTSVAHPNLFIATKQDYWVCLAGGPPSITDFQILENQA
Assay: cell-based or functional assay

HUVEC-based potency assay IC50 (ICAM-1 expression by flow cytometry): 5 ng/mL
B1: XIA14 human monoclonal antibody (antibody, V domains shown)
VH: QVQLVQSGAEVKKPGSSVKVSCKASGGRFTNYAILWVRQAPGQGLQWLGGIIPIFDETDHAQDFQDRLTITVDESMTTAYMELSSLRPEDTAIYYCATGSNSYYGLYWGQGTLVTVSS
VL: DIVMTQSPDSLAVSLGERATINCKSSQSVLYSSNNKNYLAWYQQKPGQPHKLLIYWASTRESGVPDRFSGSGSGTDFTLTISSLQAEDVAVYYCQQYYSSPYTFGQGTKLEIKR
